These results are taken from PMC9878632 (ACS Omega, 2023).

The series “AUC” deals with the molecule itself. Nature of the series: AUC.
The series “crystal structure” concerns the molecule itself. Nature of the series: crystal structure.

B1: PYCR1 T171M variant (human Δ1-pyrroline-5-carboxylate reductase 1, Thr171Met) (enzyme, UniProt P32322 1-300, looked up)
chain: MSVGFIGAGQLAFALAKGFTAAGVLAAHKIMASSPDMDLATVSALRKMGVKLTPHNKETVQHSDVLFLAVKPHIIPFILDEIGADIEDRHIVVSCAAGVTISSIEKKLSAFRPAPRVIRCMTNTPVVVREGATVYATGTHAQVEDGRLMEQLLSSVGFCTEVEEDLIDAVMGLSGSGPAYAFTALDALADGGVKMGLPRRLAVRLGAQALLGAAKMLLHSEQHPGQLKDNVSSPGGATIHALHVLESGGFRSLLINAVEASCIRTRELQSMADQEQVSPAAIKKTILDKVKLDSPAGTAL
Regarding B1, the “stoichiometry N” value in “AUC” was determined as 2; in “crystal structure”, 10.

Broadly, the stoichiometry N is the number of molecules, sites or subunits per partner or assembly.
